Test results as given in patent publication US20220273793A1, “HORSE IL-31 INDUCED PRURITUS MODEL” (priority 2021, published 2022).
Where “and” joins values, the source holds several entries; their conditions need not be identical. Equal values may be shown once.

Experiments:
IL-31 induced pruritus = assay: Oclacitinib maleate in equine model of IL-31 induced pruritus; type: in vivo, Horse; set-up: key to Post Treatment Score (pruritus): cumulative count of yes responses (1 per behavior per 1-min interval); details: for Post Treatment Score (pruritus) / % Change vs Historical Score: individual horses
Description: Horses were administered either carrier only or oclacitinib maleate tablets at a determined number of hours prior to IL-31 challenge administration. […] Blood samples for pharmacokinetic analysis were collected at the time of IL-31 administration and immediately following the post-challenge observation period. Due to limited number of observation stalls, horses were challenged in batches. Batch 1 will include T01 (n=2)+T02 (n=5). Batch 2 will include T01 (n=2)+T03 (n=5). Batch 3 will include T01 (n=2)+T04 (n=5) (Table 9)
Signs of pruritus in horses include: • Biting or scratching at self • Rubbing against objects • Feet stomping • Tail flicking • Head or body shaking • Rolling • Twitching of skin
A “yes” response was indicated by marking a “1” in the space provided for the specific behavior during the one minute interval. The cumulative number of yes responses per behavior were added to determine a cumulative pruritus score for each horse.

Horse = assay: Equine IL-31 induced pruritus model via IL-31 challenge (dose finding); type: in vivo
Description: Three to eight horses were tested at one time. Dose level depended on the pruritic response from the previous dosing group. The final desired dose was repeated. The final study design was as follows (Table 1):
Observations of normal pruritic behavior (baseline pruritus scores) were made prior to the administration of IL-31 challenge. The horses were scored the same was as post challenge observations except no IL-31 challenge was administered and observation of normal pruritic behavior was made for 30 minutes.
Following baseline pruritus score, horses were administered the IL-31 challenge. IL-31 challenge was administered intravenously to each animal via a jugular vein. The horse ID and time of administration was recorded. Recording of pruritic activity began approximately 15 to 25 minutes after the last of the horses is administered the IL-31 challenge (Table 2 (A to F) below and FIG. 1).
Classical signs of pruritus in horses include: • Biting or scratching at self • Rubbing against objects • Feet stomping • Tail flicking • Head or body shaking • Rolling • Twitching of skin
A “yes” response was indicated by marking a “1” and a “no” response was indicated by marking a “0” during the one minute interval. The cumulative number of yes responses were added to determine a cumulative Pruritus Score for each horse.

beagle dogs = details: 1.5 μg/kg intravenous challenge dose; cited from earlier work
IL-31 = molecular target: T1, IL-31 (Canis lupus familiaris, UniProt A0A8I3S3D1); details: dogs with atopic dermatitis; cited from earlier work
T1 construct: host or cells: endogenous IL-31 of client dogs with atopic dermatitis
T1 sequence (A0A8I3S3D1 24-159): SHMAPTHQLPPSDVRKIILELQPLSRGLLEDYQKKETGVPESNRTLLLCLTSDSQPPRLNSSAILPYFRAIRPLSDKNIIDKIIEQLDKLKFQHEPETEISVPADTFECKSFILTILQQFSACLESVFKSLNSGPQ

[1] = IL-31 0.05 μg/kg IV, average (Table 2E)
[2] = IL-31 0.1 μg/kg IV, average (Table 2D)
[3] = IL-31 0.25 μg/kg IV, average (Table 2C)
[4] = IL-31 0.25 μg/kg IV, repeat in second set of horses, average (Table 2F)
[5] = IL-31 0.25 μg/kg IV, repeat in second set of horses, individual horses (Table 2F)
[6] = IL-31 0.5 μg/kg IV, average (Table 2B)

Oclacitinib maleate
Post Treatment Score (pruritus) (IL-31 induced pruritus; T02: 0.25 mg/kg oral, IL-31 0.25 mcg/kg challenge 1.5 hr after dosing): 21 and 94 and 91 and 86 and 46
% Change vs Historical Score (IL-31 induced pruritus; T02: 0.25 mg/kg oral, challenge 1.5 hr after dosing): −68.89% and 6.21% and −5.70% and −9.47% and −31.85%
reduction in average pruritic score compared to the placebo group (T01) (IL-31 induced pruritus; T02: 0.25 mg/kg, challenged 1.5 hours after treatment): 30%
Post Treatment Score (pruritus) (IL-31 induced pruritus; T03: 0.25 mg/kg oral, IL-31 0.25 mcg/kg challenge 21.5 hr after dosing): 49 and 90 and 86 and 50 and 72
% Change vs Historical Score (IL-31 induced pruritus; T03: 0.25 mg/kg oral, challenge 21.5 hr after dosing): −3.92% and 65.14% and 17.81% and −29.08% and −5.88%
reduction in average pruritic score compared to the placebo group (T01) (IL-31 induced pruritus; T03: 0.25 mg/kg, challenged 21.5 hours after treatment): 29%
Post Treatment Score (pruritus) (IL-31 induced pruritus; T04: 0.25 mg/kg oral, IL-31 0.25 mcg/kg challenge 4.5 hr after dosing): 49 and 87 and 46 and 53 and 99
% Change vs Historical Score (IL-31 induced pruritus; T04: 0.25 mg/kg oral, challenge 4.5 hr after dosing): −55.05% and −22.32% and −54.23% and −45.92% and −6.16%
reduction in average pruritic score compared to the placebo group (T01) (IL-31 induced pruritus; T04: 0.25 mg/kg, challenged 4.5 hours after treatment): 31%

B1: IL-31: recombinant histidine tagged equine IL-31 polypeptide, SEQ ID NO: 10 less signal sequence, used as IV challenge material (protein)
chain: GPIYQLQPKEIQAIIVELQNLSKKLLDDYLNKEKGVQKFDSDLPSCFTSDSQAPGNINSSAILPYFKAISPSLNNDKSLYIIEQLDKLNFQNAPETEVSMPTDNFERKRFILTILRWFSNCLEHRAQHHHHHH
Post Challenge Pruritus Score/120 (Horse; IL-31 0.05 μg/kg IV, 120 min observation, individual horses (Table 2E)): 50 and 36 and 67 and 43 and 25 and 42 and 45 and 37
Post Challenge Pruritus %, Average (Horse; [1]): 36%
Post Challenge Pruritus Score/120, Average (Horse; [1]): 43.1
Post Challenge Pruritus % (Horse; IL-31 0.05 μg/kg IV, individual horses (Table 2E)): 42% and 30% and 56% and 36% and 21% and 35% and 38% and 31%
Post Challenge Pruritus Score/120 (Horse; IL-31 0.1 μg/kg IV, 120 min observation, individual horses (Table 2D)): 62 and 72 and 115 and 74 and 71 and 86 and 96 and 103
Post Challenge Pruritus %, Average (Horse; [2]): 71%
Post Challenge Pruritus Score/120, Average (Horse; [2]): 84.9
Post Challenge Pruritus % (Horse; IL-31 0.1 μg/kg IV, individual horses (Table 2D)): 52% and 60% and 96% and 62% and 59% and 72% and 80% and 86%
Post Challenge Pruritus Score/120 (Horse; IL-31 0.25 μg/kg IV, 120 min observation, individual horses (Table 2C)): 95 and 84 and 109 and 81 and 86 and 113 (2×)
Post Challenge Pruritus %, Average (Horse; [3]): 81%
Post Challenge Pruritus Score/120, Average (Horse; [3]): 97.3
Post Challenge Pruritus % (Horse; IL-31 0.25 μg/kg IV, individual horses (Table 2C)): 79% and 70% and 91% and 68% and 72% and 94% (2×)
Post Challenge Pruritus %, Average (Horse; [4]): 48%
Post Challenge Pruritus Score/120, Average (Horse; [4]): 57.6
Post Challenge Pruritus % (Horse; [5]): 47% and 17% and 9% and 73% and 57% and 72% and 43% and 68%
Post Challenge Pruritus Score/120 (Horse; [5]): 56 and 20 and 11 and 87 and 68 and 86 and 52 and 81
Post Challenge Pruritus Score/120 (Horse; IL-31 0.5 μg/kg IV, 120 min observation, individual horses (Table 2B)): 120 (2×) and 70 and 117 and 106 and 93 and 110
Post Challenge Pruritus %, Average (Horse; [6]): 88%
Post Challenge Pruritus Score/120, Average (Horse; [6]): 105.1
Post Challenge Pruritus % (Horse; IL-31 0.5 μg/kg IV, individual horses (Table 2B)): 100% (2×) and 58% and 98% and 88% and 78% and 92%
Post Challenge Pruritus Score/120, Average (Horse; IL-31 1.0 μg/kg IV, 120 min observation, average (Table 2A)): 114.7
Post Challenge Pruritus Score/120 (Horse; IL-31 1.0 μg/kg IV, 120 min observation, individual horses (Table 2A)): 120 (2×) and 104
Post Challenge Pruritus %, Average (Horse; IL-31 1.0 μg/kg IV, average (Table 2A)): 96%
Animal health observations after post challenge observation period (Horse; IL-31 1.0 μg/kg IV, first three horses, given diphenhydramine): uncomfortable level of pruritus and needed treatment
Post Challenge Pruritus % (Horse; IL-31 1.0 μg/kg IV, individual horses (Table 2A)): 100% (2×) and 87%
Animal health observations: adverse events of anaphylaxis (Horse; IL-31 0.05-1.0 μg/kg IV, horses): No adverse events of anaphylaxis were noted

B2: recombinant canine IL-31: recombinant canine IL-31 used as intravenous challenge in beagle dogs (protein)
chain: T1 sequence (A0A8I3S3D1 24-159)
pruritus duration (beagle dogs): < 24 h

B3: Cytopoint: canine anti-IL-31 monoclonal antibody (mAb) produced by Zoetis Inc. (antibody, chains of the INN, looked up, V domains shown)
VH: EVQLVESGGDLVKPGGSLRLSCVASGFTFSNYGMSWVRQAPGKGLQWVATISYGGSYTYYPDNIKGRFTISRDNAKNTLYLQMNSLRAEDTAMYYCVRGYGYDTMDYWGQGTLVTVSS
VL: EIVMTQSPASLSLSQEEKVTITCKASQSVSFAGTGLMHWYQQKPGQAPKLLIYRASNLEAGVPSRFSGSGSGTDFSFTISSLEPEDVAVYYCQQSREYPWTFGQGTKLEIK
effect on pruritus and skin lesions (IL-31): reduce pruritus and skin lesions
